Source: US20240209076A1 (KODIAK SCIENCES, published 2024)

Target: T1, recombinant human IL-6 (human, UniProt P05231 30-212)
T1 construct: Flowed in solution over the captured antibodies
Assay: SPR (Biacore), supernatant IgG on Protein A, 25 C
Protocol: Antibodies were captured on a Protein A chip (GE) by injecting 1:20 dilution of cell supernatant at 10 μL/min for 60 seconds. […] The sensor chip was regenerated by a 60 seconds injection of 10 mM Glycine pH 1.7 at flow rate of 50 μL/min. […] For this setup, 1 μg/mL of purified antibody was injected over a Protein A chip at 10 μL/min for 25-28 seconds. Data analysis for supernatant and purified samples were performed using BIAevaluation software (GE). All sensorgrams were double reference subtracted and fit using a 1:1 Langmuir binding model.

T1 sequence (P05231 30-212 limits assumed): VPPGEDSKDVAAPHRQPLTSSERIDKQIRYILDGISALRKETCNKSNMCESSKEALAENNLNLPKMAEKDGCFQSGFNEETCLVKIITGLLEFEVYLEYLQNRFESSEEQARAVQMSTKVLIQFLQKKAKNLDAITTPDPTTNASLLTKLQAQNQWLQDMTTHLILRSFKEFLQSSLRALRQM

Row | Binder | Kd | koff | kon
1 | anti-IL-6 antibody, heavy chain G102D, light chain WT (antibody, IgG1, V domains shown, Full IgG1 tested; V domains derived as in m2) VH: EVQLVESGGGLVQPGGSLRLSCAASGFTFSPFAMSWVRQAPGKGLEWVAKISPGGSWTYYSDTVTGRFTFSLDTSKSTAYLQMNSLRAEDTAVYYCARQLWDYYALDIWGQGTLVTVSS VL: DIQLTQSPSSLSASVGDRVTITCSASISVSYMYWYQQKPGKAPKLLIYDMSNLASGVPSRFSGSGSGTDFTLTISSLQPEDFATYYCMQWSGYPYTFGQGTKVEIK | 1.33 nM | 0.0006 s⁻¹ | 452000 M⁻¹ s⁻¹
2 | anti-IL-6 antibody, heavy chain F27V, light chain WT (antibody, IgG1, V domains shown, Full IgG1 tested; V domains derived as in m2) VH: EVQLVESGGGLVQPGGSLRLSCAASGVTFSPFAMSWVRQAPGKGLEWVAKISPGGSWTYYSDTVTGRFTFSLDTSKSTAYLQMNSLRAEDTAVYYCARQLWGYYALDIWGQGTLVTVSS VL: DIQLTQSPSSLSASVGDRVTITCSASISVSYMYWYQQKPGKAPKLLIYDMSNLASGVPSRFSGSGSGTDFTLTISSLQPEDFATYYCMQWSGYPYTFGQGTKVEIK | 0.442 nM | 0.000208 s⁻¹ | 470000 M⁻¹ s⁻¹
3 | anti-IL-6 antibody, heavy chain A105H, light chain WT (antibody, IgG1, V domains shown, Full IgG1 tested; V domains derived as in m2) VH: EVQLVESGGGLVQPGGSLRLSCAASGFTFSPFAMSWVRQAPGKGLEWVAKISPGGSWTYYSDTVTGRFTFSLDTSKSTAYLQMNSLRAEDTAVYYCARQLWGYYHLDIWGQGTLVTVSS VL: DIQLTQSPSSLSASVGDRVTITCSASISVSYMYWYQQKPGKAPKLLIYDMSNLASGVPSRFSGSGSGTDFTLTISSLQPEDFATYYCMQWSGYPYTFGQGTKVEIK | 1.79 nM | 0.000723 s⁻¹ | 404000 M⁻¹ s⁻¹
4 | anti-IL-6 antibody, heavy chain Q99H, light chain WT (antibody, IgG1, V domains shown, Full IgG1 tested; V domains derived as in m2) VH: EVQLVESGGGLVQPGGSLRLSCAASGFTFSPFAMSWVRQAPGKGLEWVAKISPGGSWTYYSDTVTGRFTFSLDTSKSTAYLQMNSLRAEDTAVYYCARHLWGYYALDIWGQGTLVTVSS VL: DIQLTQSPSSLSASVGDRVTITCSASISVSYMYWYQQKPGKAPKLLIYDMSNLASGVPSRFSGSGSGTDFTLTISSLQPEDFATYYCMQWSGYPYTFGQGTKVEIK | 1.94 nM | 0.00105 s⁻¹ | 539000 M⁻¹ s⁻¹
5 | anti-IL-6 antibody, heavy chain Q99A, light chain WT (antibody, IgG1, V domains shown, Full IgG1 tested; V domains derived as in m2) VH: EVQLVESGGGLVQPGGSLRLSCAASGFTFSPFAMSWVRQAPGKGLEWVAKISPGGSWTYYSDTVTGRFTFSLDTSKSTAYLQMNSLRAEDTAVYYCARALWGYYALDIWGQGTLVTVSS VL: DIQLTQSPSSLSASVGDRVTITCSASISVSYMYWYQQKPGKAPKLLIYDMSNLASGVPSRFSGSGSGTDFTLTISSLQPEDFATYYCMQWSGYPYTFGQGTKVEIK | 2 nM | 0.000737 s⁻¹ | 368000 M⁻¹ s⁻¹
6 | anti-IL-6 antibody, heavy chain A105Q, light chain WT (antibody, IgG1, V domains shown, Full IgG1 tested; V domains derived as in m2) VH: EVQLVESGGGLVQPGGSLRLSCAASGFTFSPFAMSWVRQAPGKGLEWVAKISPGGSWTYYSDTVTGRFTFSLDTSKSTAYLQMNSLRAEDTAVYYCARQLWGYYQLDIWGQGTLVTVSS VL: DIQLTQSPSSLSASVGDRVTITCSASISVSYMYWYQQKPGKAPKLLIYDMSNLASGVPSRFSGSGSGTDFTLTISSLQPEDFATYYCMQWSGYPYTFGQGTKVEIK | 1.04 nM | 0.000493 s⁻¹ | 474000 M⁻¹ s⁻¹
7 | anti-IL-6 antibody, heavy chain A97V, light chain WT (antibody, IgG1, V domains shown, Full IgG1 tested; V domains derived as in m2) VH: EVQLVESGGGLVQPGGSLRLSCAASGFTFSPFAMSWVRQAPGKGLEWVAKISPGGSWTYYSDTVTGRFTFSLDTSKSTAYLQMNSLRAEDTAVYYCVRQLWGYYALDIWGQGTLVTVSS VL: DIQLTQSPSSLSASVGDRVTITCSASISVSYMYWYQQKPGKAPKLLIYDMSNLASGVPSRFSGSGSGTDFTLTISSLQPEDFATYYCMQWSGYPYTFGQGTKVEIK | 0.574 nM | 0.000179 s⁻¹ | 311000 M⁻¹ s⁻¹

These reach a lower Kd. Values come first.

Row | Kd | koff | kon | Binder
8 | 0.337 nM | 0.000151 s⁻¹ | 448000 M⁻¹ s⁻¹ | anti-IL-6 antibody, heavy chain A49T, light chain WT (antibody, IgG1, V domains shown, Full IgG1 tested; V domains derived as in m2) VH: EVQLVESGGGLVQPGGSLRLSCAASGFTFSPFAMSWVRQAPGKGLEWVTKISPGGSWTYYSDTVTGRFTFSLDTSKSTAYLQMNSLRAEDTAVYYCARQLWGYYALDIWGQGTLVTVSS VL: DIQLTQSPSSLSASVGDRVTITCSASISVSYMYWYQQKPGKAPKLLIYDMSNLASGVPSRFSGSGSGTDFTLTISSLQPEDFATYYCMQWSGYPYTFGQGTKVEIK
9 | 0.278 nM | 0.000203 s⁻¹ | 731000 M⁻¹ s⁻¹ | anti-IL-6 antibody, heavy chain F27S, light chain WT (antibody, IgG1, V domains shown, Full IgG1 tested; V domains derived as in m2) VH: EVQLVESGGGLVQPGGSLRLSCAASGSTFSPFAMSWVRQAPGKGLEWVAKISPGGSWTYYSDTVTGRFTFSLDTSKSTAYLQMNSLRAEDTAVYYCARQLWGYYALDIWGQGTLVTVSS VL: DIQLTQSPSSLSASVGDRVTITCSASISVSYMYWYQQKPGKAPKLLIYDMSNLASGVPSRFSGSGSGTDFTLTISSLQPEDFATYYCMQWSGYPYTFGQGTKVEIK
10 | 0.344 nM | 0.000196 s⁻¹ | 570000 M⁻¹ s⁻¹ | anti-IL-6 antibody, heavy chain F27P, light chain WT (antibody, IgG1, V domains shown, Full IgG1 tested; V domains derived as in m2) VH: EVQLVESGGGLVQPGGSLRLSCAASGPTFSPFAMSWVRQAPGKGLEWVAKISPGGSWTYYSDTVTGRFTFSLDTSKSTAYLQMNSLRAEDTAVYYCARQLWGYYALDIWGQGTLVTVSS VL: DIQLTQSPSSLSASVGDRVTITCSASISVSYMYWYQQKPGKAPKLLIYDMSNLASGVPSRFSGSGSGTDFTLTISSLQPEDFATYYCMQWSGYPYTFGQGTKVEIK
11 | 0.279 nM | 0.000134 s⁻¹ | 479000 M⁻¹ s⁻¹ | anti-IL-6 antibody, heavy chain L106I, light chain WT (antibody, IgG1, V domains shown, Full IgG1 tested; V domains derived as in m2) VH: EVQLVESGGGLVQPGGSLRLSCAASGFTFSPFAMSWVRQAPGKGLEWVAKISPGGSWTYYSDTVTGRFTFSLDTSKSTAYLQMNSLRAEDTAVYYCARQLWGYYAIDIWGQGTLVTVSS VL: DIQLTQSPSSLSASVGDRVTITCSASISVSYMYWYQQKPGKAPKLLIYDMSNLASGVPSRFSGSGSGTDFTLTISSLQPEDFATYYCMQWSGYPYTFGQGTKVEIK
12 | 0.415 nM | 0.000209 s⁻¹ | 503000 M⁻¹ s⁻¹ | anti-IL-6 antibody, heavy chain F27R, light chain WT (antibody, IgG1, V domains shown, Full IgG1 tested; V domains derived as in m2) VH: EVQLVESGGGLVQPGGSLRLSCAASGRTFSPFAMSWVRQAPGKGLEWVAKISPGGSWTYYSDTVTGRFTFSLDTSKSTAYLQMNSLRAEDTAVYYCARQLWGYYALDIWGQGTLVTVSS VL: DIQLTQSPSSLSASVGDRVTITCSASISVSYMYWYQQKPGKAPKLLIYDMSNLASGVPSRFSGSGSGTDFTLTISSLQPEDFATYYCMQWSGYPYTFGQGTKVEIK
13 | 0.24 nM | 0.000206 s⁻¹ | 856000 M⁻¹ s⁻¹ | anti-IL-6 antibody, heavy chain F27G, light chain WT (antibody, IgG1, V domains shown, Full IgG1 tested; V domains derived as in m2) VH: EVQLVESGGGLVQPGGSLRLSCAASGGTFSPFAMSWVRQAPGKGLEWVAKISPGGSWTYYSDTVTGRFTFSLDTSKSTAYLQMNSLRAEDTAVYYCARQLWGYYALDIWGQGTLVTVSS VL: DIQLTQSPSSLSASVGDRVTITCSASISVSYMYWYQQKPGKAPKLLIYDMSNLASGVPSRFSGSGSGTDFTLTISSLQPEDFATYYCMQWSGYPYTFGQGTKVEIK
14 | 0.35 nM | 0.000147 s⁻¹ | 420000 M⁻¹ s⁻¹ | anti-IL-6 antibody, heavy chain D62F, light chain WT (antibody, IgG1, V domains shown, Full IgG1 tested; V domains derived as in m2) VH: EVQLVESGGGLVQPGGSLRLSCAASGFTFSPFAMSWVRQAPGKGLEWVAKISPGGSWTYYSFTVTGRFTFSLDTSKSTAYLQMNSLRAEDTAVYYCARQLWGYYALDIWGQGTLVTVSS VL: DIQLTQSPSSLSASVGDRVTITCSASISVSYMYWYQQKPGKAPKLLIYDMSNLASGVPSRFSGSGSGTDFTLTISSLQPEDFATYYCMQWSGYPYTFGQGTKVEIK
